# In patent US20210023171A1 (published 2021):
# B1: recombinant AgRP peptide 7C (FLAG and hexahistidine tagged) (peptide)
# chain: DYKDDDDKGCVRLHESCLGQQVPCCDPAATCYCYGRGDNDLRCYCRHHHHHH
# B2: recombinant engineered AgRP peptide 7A (FLAG and hexahistidine tagged) (peptide)
# chain: DYKDDDDKGCVRLHESCLGQQVPCCDPAATCYCSGRGDNDLVCYCRHHHHHH
# notes: also called 7A (5E); 5E
# Columns and labels:
# [1] = molecular target: T1, αvβ3 integrin on cells (U87MG glioblastoma cells; K562-αvβ3 cells) (UniProt P06756 31-1048; P05106 27-788); assay: competition of synthetic 7C by recombinant 7C on U87MG cells, performed analogously
# T1 construct: whole, on cells; also called cell surface αvβ3 integrin
# T1 sequence (P06756 31-1048, chain 1 of 2): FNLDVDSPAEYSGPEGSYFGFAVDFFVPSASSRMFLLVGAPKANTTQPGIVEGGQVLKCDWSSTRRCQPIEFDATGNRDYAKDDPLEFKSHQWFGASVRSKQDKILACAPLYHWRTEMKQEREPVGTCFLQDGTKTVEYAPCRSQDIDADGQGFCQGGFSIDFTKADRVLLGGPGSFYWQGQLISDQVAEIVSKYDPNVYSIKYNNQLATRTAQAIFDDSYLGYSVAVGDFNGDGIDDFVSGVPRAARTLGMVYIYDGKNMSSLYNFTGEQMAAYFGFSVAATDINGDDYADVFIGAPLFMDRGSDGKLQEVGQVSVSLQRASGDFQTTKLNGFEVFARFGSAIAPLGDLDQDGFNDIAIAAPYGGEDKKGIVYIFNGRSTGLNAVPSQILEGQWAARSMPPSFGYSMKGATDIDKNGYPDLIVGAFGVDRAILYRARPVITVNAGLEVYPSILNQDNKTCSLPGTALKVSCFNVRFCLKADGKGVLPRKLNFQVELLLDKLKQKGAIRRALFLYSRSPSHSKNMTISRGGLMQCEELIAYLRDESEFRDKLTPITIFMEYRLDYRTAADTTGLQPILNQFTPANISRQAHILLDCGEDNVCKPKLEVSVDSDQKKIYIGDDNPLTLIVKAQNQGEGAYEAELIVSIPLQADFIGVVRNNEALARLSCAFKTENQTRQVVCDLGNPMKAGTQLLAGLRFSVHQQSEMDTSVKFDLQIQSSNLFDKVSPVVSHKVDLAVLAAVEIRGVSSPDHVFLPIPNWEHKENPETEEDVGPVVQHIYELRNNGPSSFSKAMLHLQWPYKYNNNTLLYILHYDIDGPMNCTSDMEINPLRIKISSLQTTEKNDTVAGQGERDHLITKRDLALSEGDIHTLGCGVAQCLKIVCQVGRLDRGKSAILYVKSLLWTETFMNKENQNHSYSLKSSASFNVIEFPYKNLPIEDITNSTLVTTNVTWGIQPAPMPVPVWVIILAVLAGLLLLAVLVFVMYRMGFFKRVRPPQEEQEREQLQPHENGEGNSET
# T1 sequence (P05106 27-788, chain 2 of 2): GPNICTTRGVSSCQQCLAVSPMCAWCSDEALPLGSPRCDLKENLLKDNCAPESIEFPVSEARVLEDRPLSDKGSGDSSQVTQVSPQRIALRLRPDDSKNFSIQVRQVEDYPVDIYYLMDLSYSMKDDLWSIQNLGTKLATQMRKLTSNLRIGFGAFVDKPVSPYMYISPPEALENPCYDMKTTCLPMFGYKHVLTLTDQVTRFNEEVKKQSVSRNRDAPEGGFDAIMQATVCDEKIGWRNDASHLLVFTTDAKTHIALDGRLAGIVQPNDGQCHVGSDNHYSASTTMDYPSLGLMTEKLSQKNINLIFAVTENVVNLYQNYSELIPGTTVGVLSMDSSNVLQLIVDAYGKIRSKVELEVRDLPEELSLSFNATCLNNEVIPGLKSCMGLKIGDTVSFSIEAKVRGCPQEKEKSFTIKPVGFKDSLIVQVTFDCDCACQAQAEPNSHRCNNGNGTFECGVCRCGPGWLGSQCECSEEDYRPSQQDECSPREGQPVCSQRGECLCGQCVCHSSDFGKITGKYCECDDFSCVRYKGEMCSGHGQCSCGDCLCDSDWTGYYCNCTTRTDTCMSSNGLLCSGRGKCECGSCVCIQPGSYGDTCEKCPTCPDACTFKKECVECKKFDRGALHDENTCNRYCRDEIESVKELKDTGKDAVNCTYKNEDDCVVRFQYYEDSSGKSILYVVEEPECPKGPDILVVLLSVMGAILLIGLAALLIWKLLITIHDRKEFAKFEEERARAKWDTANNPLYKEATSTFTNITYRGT
# [2] = molecular target: T1, αvβ3 integrin on cells (U87MG …); assay: direct equilibrium titration on U87MG cells, anti-His flow cytometry
# [3] = molecular target: T2, αiibβ3 integrin on K562 cells stably transfected with αiibβ3 (UniProt P08514 32-1039; P05106 27-788); assay: titration on K562-αiibβ3 cells up to 5 µM, not saturated
# T2 construct: whole, on cells; also called K562-αiibβ3; K562-αiiβ3
# [4] = molecular target: T1, αvβ3 integrin on cells (U87MG …); assay: cell-based or functional assay
# [5] = molecular target: T1, αvβ3 integrin on cells (U87MG …); assay: direct equilibrium titration on K562-αvβ3 cells, anti-His flow cytometry
# [6] = molecular target: T1, αvβ3 integrin on cells (U87MG …); assay: direct equilibrium titration on U87MG cells
Binder,IC50 [1],Kd [2],Kd [3],adhesion (IC50; nM) of K562-αvβ3 cells to vitronectin-coated wells [4],Kd [5],"fold improvement over the worst binder, 6C [6]"
B1,23 nM,1.8 nM,> 100 nM,12 nM,2.4 nM,–
B2,–,0.78 nM,> 100 nM,61 nM,0.89 nM,17 fold
